Laboratory results from patent publication US20200109196A1 (MOGAM INSTITUTE FOR BIOMEDICAL RESEARCH, published 2020).

Tests used:
Assay in all cases: flow cytometry on transfected HEK293 cells (GFP+ gate), PE goat anti-huIgG4 [b]
[1] = target: T1, CEACAM6 expressed on the surface of HEK293 cells (human, UniProt P40199 35-320)
T1 construct: whole, on cells; GFP-tagged clone; also called CEACAM6-GFP
T1 sequence (looked up): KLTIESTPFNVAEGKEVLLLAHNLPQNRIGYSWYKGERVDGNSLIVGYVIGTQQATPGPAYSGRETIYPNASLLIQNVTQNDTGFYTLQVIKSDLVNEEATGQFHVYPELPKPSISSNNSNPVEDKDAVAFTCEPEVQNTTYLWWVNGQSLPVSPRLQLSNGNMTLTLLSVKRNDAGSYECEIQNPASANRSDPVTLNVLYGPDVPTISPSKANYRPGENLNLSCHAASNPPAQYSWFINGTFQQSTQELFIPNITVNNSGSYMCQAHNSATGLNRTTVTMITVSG
Experimental: (§1) HEK293 cells were added with 10 μg of each pEF1α-AcGFP-N1 vector (Clontech, Cat. No. 631973) as a control vector, CEACAM1, CEACAM3, CEACAM5, CEACAM6 and CEACAM8 plasmid vectors, followed by transfection under the condition of pulse voltage 1,100 V, pulse width 20 ms and pulse number 2. After 48 hours of transfection, GFP expression was confirmed by fluorescence microscopy. The cells were detached by treatment with 1 ml of TrypLE Express Solution (ThermoFisher Scientific; Cat. No. 12605010), resuspended in 9 ml of DMEM (Gibco, Cat. No. 11995-065) supplemented with 10% (v/v) FBS, and centrifuged at 1,200 rpm for 5 minutes, to remove the resulting supernatant.
(§2) After washing once with PBS, the cells were resuspended in a FACS buffer to obtain a concentration of 5×10⁵ cells/100 μl. Human Fc Block solution was added to the samples at 1 μl/sample, which were incubated at 4° C. for 10 minutes. The cells were treated with hulgG4 or one of the anti-CEACAM1 clones listed at 1 μg/5×10⁵ cells, which were incubated at 4° C. for 10 minutes. After washing with FACS buffer, the PE-labeled goat-anti-huIgG4 antibodies were diluted at a ratio of 1:200 in a FACS buffer, and added to the samples at 100 μl/sample, which were incubated at 4° C. for 30 minutes. The samples were filled with a FACS buffer up to 200 μl, and then centrifuged at 1,200 rpm for 5 minutes, to remove the resulting supernatant. The fixation buffer (300 μl) was added to resuspend the cells. The cells expressing GFP were selected in the FACS LSR-Fortessa device, and the expression of CEACAM members were evaluated respectively using the antibody specific to each CEACAM member (Table 3). Also, the binding of anti-CEACAM1 antibodies was evaluated by PE fluorescence channel and analyzed using the FlowJo software.

[2] = target: T2, CEACAM5 expressed on the surface of HEK293 cells (human, UniProt P06731 35-685)
T2 construct: whole, on cells; GFP-tagged clone; also called CEACAM5-GFP
T2 sequence (looked up): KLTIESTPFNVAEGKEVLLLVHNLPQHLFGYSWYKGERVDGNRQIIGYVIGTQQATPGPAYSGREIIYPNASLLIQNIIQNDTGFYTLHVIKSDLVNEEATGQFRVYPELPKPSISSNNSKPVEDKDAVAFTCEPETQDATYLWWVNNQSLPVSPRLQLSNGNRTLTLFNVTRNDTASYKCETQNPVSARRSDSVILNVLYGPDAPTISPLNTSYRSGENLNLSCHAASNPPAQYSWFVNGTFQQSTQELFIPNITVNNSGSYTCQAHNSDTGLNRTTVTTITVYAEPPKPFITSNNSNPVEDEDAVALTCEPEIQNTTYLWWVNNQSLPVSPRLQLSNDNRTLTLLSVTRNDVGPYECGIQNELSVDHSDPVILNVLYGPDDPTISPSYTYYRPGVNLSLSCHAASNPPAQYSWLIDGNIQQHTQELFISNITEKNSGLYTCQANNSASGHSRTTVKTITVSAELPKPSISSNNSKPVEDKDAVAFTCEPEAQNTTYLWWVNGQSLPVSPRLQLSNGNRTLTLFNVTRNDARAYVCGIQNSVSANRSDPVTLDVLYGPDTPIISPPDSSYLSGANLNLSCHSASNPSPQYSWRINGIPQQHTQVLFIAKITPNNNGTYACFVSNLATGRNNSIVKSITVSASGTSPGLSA
Experimental: as §1, §2

[3] = target: T3, CEACAM3 expressed on the surface of HEK293 cells (human, UniProt P40198 35-252)
T3 construct: whole, on cells; GFP-tagged clone; also called CEACAM3-GFP
T3 sequence (looked up): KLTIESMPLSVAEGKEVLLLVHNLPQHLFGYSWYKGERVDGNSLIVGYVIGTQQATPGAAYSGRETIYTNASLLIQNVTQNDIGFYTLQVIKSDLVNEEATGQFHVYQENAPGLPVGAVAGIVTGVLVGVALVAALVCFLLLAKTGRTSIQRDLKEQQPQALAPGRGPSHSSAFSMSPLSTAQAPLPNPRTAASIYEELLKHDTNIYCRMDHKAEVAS
Experimental: as §1, §2

Measured: binding result

B1: 4R26 (antibody, human IgG4 S228P, lambda, V domains shown)
VH: EVQLLESGGGLVQPGGSLRLSCAASGFTFSNYAMSWVRQAPGKGLEWVSVISHGGGSIYYADSVKGRLTISRDNSKNTLYLQMNSLRAEDTAVYYCARDPTKGYAPTFDYWGQGTLVTVSS
VL: QSVLTQPPSASGTPGQRVTISCSGSSSNIGNNYVSWYQQLPGTAPKLLIYADSKRLSGVPDRFSGSKSGTSASLAISGLRSEDEADYYCGAWDGRLNGYVFGGGTKLTVLG
notes: also called C25-derived clone 4R26
no binding: all assays above

B2: 4R9 (antibody, human IgG4 S228P, lambda, V domains shown)
VH: EVQLLESGGGLVQPGGSLRLSCAASGFTFSNYAMSWVRQAPGKGLEWVSVISHGGGSIYYADSVKGRLTISRDNSKNTLYLQMNSLRAEDTAVYYCARDPTKGYAPTFDYWGQGTLVTVSS
VL: QSVLTQPPSASGTPGQRVTISCSGSSSNIGNNYVSWYQQLPGTAPKLLIYADSRRPSGVPDRFSGSKSGTSASLAISGLRSEDEADYYCGAWDLSLNGYVFGGGTKLTVLG
notes: also called C25-derived clone 4R9
no binding: all assays above

B3: 4R9_H2-2 (antibody, human IgG4 S228P, lambda, V domains shown)
VH: EVQLLESGGGLVQPGGSLRLSCAASGFTFSNYAMSWVRQAPGKGLEWVSVISHGGGSIYYADSVKGRLTISRDNSKNTLYLQMNSLRAEDTAVYYCARDPTKGYAPLFDYWGQGTLVTVSS
VL: QSVLTQPPSASGTPGQRVTISCSGSSSNIGNNYVSWYQQLPGTAPKLLIYADSRRPSGVPDRFSGSKSGTSASLAISGLRSEDEADYYCGAWDLSLNGYVFGGGTKLTVLG
notes: also called C25-derived clone 4R9_H2-2
no binding: all assays above

B4: 4R9_H4-n20 (antibody, human IgG4 S228P, lambda, V domains shown)
VH: EVQLLESGGGLVQPGGSLRLSCAASGFNFSNYAMSWVRQAPGKGLEWVSVISHGGGSIYYADSVKGRLTISRDNSKNTLYLQMNSLRAEDTAVYYCARDPTKGYAPTFDYWGQGTLVTVSS
VL: QSVLTQPPSASGTPGQRVTISCSGSSSNIGNNYVSWYQQLPGTAPKLLIYADSRRPSGVPDRFSGSKSGTSASLAISGLRSEDEADYYCGAWDLSLNGYVFGGGTKLTVLG
notes: also called C25-derived clone 4R9_H4-n20
no binding: all assays above
